Data as given in the supplement of paper PMC9233669.
Fewer inactive variants are shown than the library holds.

What was measured:
biotinyl-Leu-oxazolone = assay: self-aminoacylation, catalytic enhancement (BLO) (fold over background); higher = more active; k-Seq, kA / k0A0; sequences stand for … in GGGAAUGGAUCCACAUCUACGAAUUC…UUCACUGCAGACUUGACGAAGCUG
Procedure, shortened: (§1)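 The uncatalyzed rate is the low-activity peak of a bimodal Gaussian fit, and catalytic enhancement is median kA divided by it. The kA values came from pseudo-first-order fits, with 1000 bootstraps, of per-sequence fraction reacted measured by streptavidin capture, triplicate qPCR and Illumina sequencing. Mutagenized RNA pools with a 21-nt variable region (0.43 μM) were reacted with each biotinyl-aminoacyl-oxazolone at 2–1250 μM in 50 μL HEPES/NaCl/KCl/MgCl2/CaCl2 buffer with 5% acetonitrile, pH 6.9–7.0, for 90 minutes at room temperature.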

biotinyl-Val-oxazolone = assay: self-aminoacylation, catalytic enhancement (BVO) (fold over background); higher = more active; k-Seq, kA / k0A0; sequences stand for … in GGGAAUGGAUCCACAUCUACGAAUUC…UUCACUGCAGACUUGACGAAGCUG
Procedure, shortened: as §1

biotinyl-Met-oxazolone = assay: self-aminoacylation, catalytic enhancement (BMO) (fold over background); higher = more active; k-Seq, kA / k0A0; sequences stand for … in GGGAAUGGAUCCACAUCUACGAAUUC…UUCACUGCAGACUUGACGAAGCUG
Procedure, shortened: as §1

biotinyl-Phe-oxazolone = assay: self-aminoacylation, catalytic enhancement (BFO) (fold over background); higher = more active; k-Seq, kA / k0A0; sequences stand for … in GGGAAUGGAUCCACAUCUACGAAUUC…UUCACUGCAGACUUGACGAAGCUG
Procedure, shortened: as §1

biotinyl-Ile-oxazolone = assay: self-aminoacylation, catalytic enhancement (BIO) (fold over background); higher = more active; k-Seq, kA / k0A0; sequences stand for … in GGGAAUGGAUCCACAUCUACGAAUUC…UUCACUGCAGACUUGACGAAGCUG
Procedure, shortened: as §1

biotinyl-Trp-oxazolone = assay: self-aminoacylation, catalytic enhancement (BWO) (fold over background); higher = more active; k-Seq, kA / k0A0; sequences stand for … in GGGAAUGGAUCCACAUCUACGAAUUC…UUCACUGCAGACUUGACGAAGCUG
Procedure, shortened: as §1

Row | Sequence | self-aminoacylation (biotinyl-Leu-oxazolone) | self-aminoacylation (biotinyl-Val-oxazolone) | self-aminoacylation (biotinyl-Met-oxazolone) | self-aminoacylation (biotinyl-Phe-oxazolone) | self-aminoacylation (biotinyl-Ile-oxazolone) | self-aminoacylation (biotinyl-Trp-oxazolone)
1 | AUUACCCUGGCCAUCGAGUUA [Fam2.1 aminoacylation ribozyme variant] | 1.28 | 1.12 | 1.26 | 0.675 | 1.38 | 0.729
2 | AUUACCCUGGCUAUCGAGUGA [Fam2.1 aminoacylation ribozyme variant] | 2.35 | 1.82 | 2.14 | 4.17 | 1.54 | 2.49
3 | AUUACCCUGGGAAUCGAGUGA [Fam2.1 aminoacylation ribozyme variant] | 5.93 | 3.29 | 5.72 | 26.8 | 2.78 | 4.59
4 | AUUACCCUGGGCAUCGGGUGA [Fam2.1 aminoacylation ribozyme variant] | 11.5 | 6.68 | 10.4 | 65.7 | 5.62 | 10.8
5 | AUUACCCUGGGCAUUGAGUGA [Fam2.1 aminoacylation ribozyme variant] | 11.3 | 4.23 | 9.32 | 58.7 | 4.38 | 11.9
6 | AUUACCCUGGGCGUCGAGUGA [Fam2.1 aminoacylation ribozyme variant] | 1.3 | 1.44 | 1.73 | 1.06 | 1.04 | 1.04
7 | AUUACCCUGGGUAUCGAGUGA [Fam2.1 aminoacylation ribozyme variant] | 10.9 | 4.62 | 9.85 | 57.8 | 4.51 | 11.2
8 | AUUACCCUGGUAAGCGAGUGA [Fam2.1 aminoacylation ribozyme variant] | 4.55 | 3.21 | 5.79 | 42.1 | 2.82 | 6.48
9 | AUUACCCUGGUAAUAGAGUGA [Fam2.1 aminoacylation ribozyme variant] | 16.1 | 6.61 | 16.2 | 125 | 6.19 | 17.9
10 | AUUACCCUGGUAAUCGAGUCA [Fam2.1 aminoacylation ribozyme variant] | 0.783 | 0.838 | 0.902 | 0.569 | 0.825 | 0.473
11 | AUUACCCUGGUAAUCGAGUGG [Fam2.1 aminoacylation ribozyme variant] | 2.79 | 1.31 | 2.85 | 2.83 | 1.38 | 2.9
12 | AUUACCCUGGUAUUCGAGUGA [Fam2.1 aminoacylation ribozyme variant] | 7.89 | 3.65 | 7.43 | 42.4 | 3.56 | 9.54
13 | AUUACCCUGGUCAACGAGUAA [Fam2.1 aminoacylation ribozyme variant] | 1.53 | 1.44 | 1.19 | 1.01 | 1.29 | 0.972
14 | AUUACCCUGGUCAACGAGUUA [Fam2.1 aminoacylation ribozyme variant] | 0.662 | 0.947 | 1.26 | 0.836 | 0.971 | 0.529
15 | AUUACCCUGGUCACCAAGUGA [Fam2.1 aminoacylation ribozyme variant] | 6.54 | 3.32 | 6.45 | 34.3 | 3.47 | 7.7
16 | AUUACCCUGGUCACCCAGUGA [Fam2.1 aminoacylation ribozyme variant] | 6.87 | 3.6 | 7.54 | 46.1 | 4.12 | 8.27
17 | AUUACCCUGGUCACCGAGUUA [Fam2.1 aminoacylation ribozyme variant] | 1.26 | 1.75 | 1.52 | 1.81 | 1.64 | 2.34
18 | AUUACCCUGGUCACCGCGUGA [Fam2.1 aminoacylation ribozyme variant] | 16.7 | 7.05 | 14.1 | 98.1 | 6.07 | 16.7
19 | AUUACCCUGGUCAGCGAAUGA [Fam2.1 aminoacylation ribozyme variant] | 1.22 | 1.31 | 1.43 | 0.631 | 1.05 | 1.38
20 | AUUACCCUGGUCAGCGGGUGA [Fam2.1 aminoacylation ribozyme variant] | 10.1 | 6.36 | 9.2 | 68.2 | 5.3 | 10.1
21 | AUUACCCUGGUCAGCGUGUGA [Fam2.1 aminoacylation ribozyme variant] | 5.25 | 3.59 | 5.28 | 30.9 | 2.79 | 6.56
22 | AUUACCCUGGUCAUAGACUGA [Fam2.1 aminoacylation ribozyme variant] | 0.739 | 0.991 | 0.586 | 0.776 | 0.874 | 0.537
23 | AUUACCCUGGUCAUAGAGAGA [Fam2.1 aminoacylation ribozyme variant] | 0.798 | 0.717 | 0.983 | 0.605 | 0.947 | 0.77
24 | AUUACCCUGGUCAUAGAGUUA [Fam2.1 aminoacylation ribozyme variant] | 0.921 | 1.1 | 1.39 | 0.667 | 1.25 | 0.786
25 | AUUACCCUGGUCAUCAACUGA [Fam2.1 aminoacylation ribozyme variant] | 0.851 | 1.13 | 0.667 | 0.556 | 0.789 | 0.571
26 | AUUACCCUGGUCAUCAAGGGA [Fam2.1 aminoacylation ribozyme variant] | 0.752 | 1.13 | 0.807 | 1.11 | 0.87 | 1.2

Row | Sequence | self-aminoacylation (biotinyl-Leu-oxazolone) | self-aminoacylation (biotinyl-Val-oxazolone) | self-aminoacylation (biotinyl-Met-oxazolone) | self-aminoacylation (biotinyl-Phe-oxazolone) | self-aminoacylation (biotinyl-Ile-oxazolone) | self-aminoacylation (biotinyl-Trp-oxazolone)
27 | AUUACCCUGGUCAUCAAGUGC [Fam2.1 aminoacylation ribozyme variant] | 0.567 | 0.795 | 0.691 | 0.434 | 0.689 | 0.302
28 | AUUACCCUGGUCAUCAAGUUA [Fam2.1 aminoacylation ribozyme variant] | 0.646 | 0.681 | 0.684 | 0.737 | 0.676 | 0.328
29 | AUUACCCUGGUCAUCACGUGA [Fam2.1 aminoacylation ribozyme variant] | 7.86 | 4.39 | 8.87 | 52.4 | 3.08 | 9.65
30 | AUUACCCUGGUCAUCAUGUGA [Fam2.1 aminoacylation ribozyme variant] | 6.36 | 3.17 | 6.44 | 26.2 | 2.67 | 6.97
31 | AUUACCCUGGUCAUCCAGUGA [Fam2.1 aminoacylation ribozyme variant] | 5.76 | 3.42 | 5.67 | 28.1 | 3.41 | 6.71
32 | AUUACCCUGGUCAUCCAGUGG [Fam2.1 aminoacylation ribozyme variant] | 1.68 | 1.3 | 1.84 | 1.42 | 1.22 | 1.28
33 | AUUACCCUGGUCAUCCAGUUA [Fam2.1 aminoacylation ribozyme variant] | 0.855 | 1.08 | 0.914 | 0.726 | 0.875 | 0.433
34 | AUUACCCUGGUCAUCGAAUGA [Fam2.1 aminoacylation ribozyme variant] | 1.08 | 1.06 | 1.07 | 0.974 | 1 | 0.908
35 | AUUACCCUGGUCAUCGAAUGC [Fam2.1 aminoacylation ribozyme variant] | 0.723 | 0.68 | 0.827 | 0.567 | 1.04 | 0.726
36 | AUUACCCUGGUCAUCGACUGC [Fam2.1 aminoacylation ribozyme variant] | 0.839 | 0.722 | 0.555 | 0.441 | 0.701 | 0.371
37 | AUUACCCUGGUCAUCGAGCGG [Fam2.1 aminoacylation ribozyme variant] | 2.9 | 1.8 | 2.38 | 1.12 | 1.95 | 1.61
38 | AUUACCCUGGUCAUCGAGGAA [Fam2.1 aminoacylation ribozyme variant] | 5.25 | 2.44 | 5.91 | 8.38 | 2.3 | 4.88
39 | AUUACCCUGGUCAUCGAGGGC [Fam2.1 aminoacylation ribozyme variant] | 1.56 | 1.24 | 1.77 | 1.09 | 1.31 | 1.12
40 | AUUACCCUGGUCAUCGAGGUA [Fam2.1 aminoacylation ribozyme variant] | 5.68 | 3.16 | 7.24 | 10.2 | 2.38 | 5.45
41 | AUUACCCUGGUCAUCGAGUAA [Fam2.1 aminoacylation ribozyme variant] | 26.7 | 10.1 | 28.9 | 118 | 8.7 | 25.3
42 | AUUACCCUGGUCAUCGAGUAG [Fam2.1 aminoacylation ribozyme variant] | 4.67 | 2.64 | 4.51 | 13.9 | 2.15 | 4.18
43 | AUUACCCUGGUCAUCGAUUGU [Fam2.1 aminoacylation ribozyme variant] | 0.736 | 0.785 | 0.73 | 0.73 | 0.753 | 0.386
44 | AUUACCCUGGUCAUCGCAUGA [Fam2.1 aminoacylation ribozyme variant] | 3.5 | 1.75 | 3.2 | 13.8 | 2.01 | 3.77
45 | AUUACCCUGGUCAUCGCGUGG [Fam2.1 aminoacylation ribozyme variant] | 6.77 | 3.14 | 3.88 | 35.6 | 2.8 | 5.28
46 | AUUACCCUGGUCAUCGGGAGA [Fam2.1 aminoacylation ribozyme variant] | 4.4 | 2.41 | 2.97 | 2.87 | 1.71 | 5.01
47 | AUUACCCUGGUCAUCGGGUCA [Fam2.1 aminoacylation ribozyme variant] | 6.66 | 4.01 | 5.33 | 22.5 | 3.61 | 9.71
48 | AUUACCCUGGUCAUCGUGAGA [Fam2.1 aminoacylation ribozyme variant] | 0.777 | 0.789 | 0.897 | 0.858 | 0.703 | 0.867
49 | AUUACCCUGGUCAUCUAGUAA [Fam2.1 aminoacylation ribozyme variant] | 1.15 | 1.08 | 1.06 | 1.32 | 1.1 | 0.903
50 | AUUACCCUGGUCAUCUGGUGA [Fam2.1 aminoacylation ribozyme variant] | 5.37 | 2.72 | 5 | 31.1 | 3.08 | 4.53
51 | AUUACCCUGGUCAUGGAGUGA [Fam2.1 aminoacylation ribozyme variant] | 4.95 | 3.02 | 4.69 | 19.7 | 3.07 | 5.8
